Source: the nanobody polyreactivity screen of Harvey et al. (2022)

Experiment: yeast display, Sf9 membrane polyspecificity reagent, FACS + sequencing; frameworks hold sequencing errors
Method in brief: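 In a synthetic yeast display library (Saccharomyces cerevisiae BJ5465), nanobody expression was induced with galactose for 36–48 hours. FACS gates were set low and high (top ~1%) using anti-HA fluorescence for expression and streptavidin fluorescence for binding of the Sf9 membrane reagent. Each polyreactivity label is drawn from the gate of origin.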

Row | Sequence | polyreactivity (PSR sort gate)
1 | QVQLVESGGGLVQAGGSLRLSCAASGSTFVYYAMGWYRQAPGKERELVARISSTGSTNYADSVKGRFTISRDNAKNTVYLQMHSLKPEDTAVYYCAARGPSPGHGTYTRTRGQSYYYWGQCTQVTVSS | high polyreactivity
2 | QVQLVESGGCLLQAGGSLRLSCAASGYIFERNAMGWYRQAPGKERELVAAITDDGDDTYYADSVKGRFTISRDNEKNTVYLQMNSLKPEDTAVYYCAKDLYYGDYYYWGQGTQVTVSS | low polyreactivity
3 | QVQLVESGGGLVQAGGSLRLSCAASGGTFLYYMGWYRQSPGKERELVAAITFSGGSTYYADSVKGRFTISRDNAKNTVYLQMNSLKPEDTAVYYCAAGWYDWPKYLLSVYTYYLYDSWGQGTQVTVSS | low polyreactivity
4 | QVQLVESGGGLVQAGGSLRLSCAASGLIFRPYAMGWYRQAPGKERELVAAITSGGSTDYADSVKGRFTISRDNAKNTVYLQMNSLKPQDTAVYYCNADTIPDGEDRYVYWGQGTQVTVSS | low polyreactivity
5 | QVQHVESGGGLVQGGGSLRLSCAASGSTFYAYAKGWYRQARGKERELVAVITSSGSTYYADSVKGRFTISRDNAKNTDYLQMNSLKAEDTAVYYCAAKRLSQSRRTQYRTRYQPMYYWGQGTQVTVSS | high polyreactivity
6 | QVQLVESGGGLVQAGGSHRLSCAASGYTFPLYAMGWYRQAPGKERELVADINIGGASTYYADSVKGRFTISRDNAKNTVYLQMNSLKPEDTAVYYCAKEYYDGYFPTFDYDYWGQGTQVTVSS | low polyreactivity
7 | QVQLVESGGGIVQAGGSLRLSCAASGRIFYFNAMGWYSQAPGKERELVAAISGSGGDTYYADSVKGRFTISRDNAKNTVYLQMNSLKPEDTAVYFCAKEYIFRLWGQGTQVTVSS | low polyreactivity
8 | QVQLVESGGGLVQAGGSLRLSCAASGSILDGNAMGWYRQAPGKERELVAAITRSGGRTYYADSVKGRFTISRDNAKNTVYLQMNSLKPEDTAVYYCNVDVPGVRFEYWGQGTQVTVSS | low polyreactivity
9 | QVQLVESGGGLVPAGGSLRLSCAASGSTFEVNAMGWYRQAPGKERELVADITSGGSTNYADSVKGRFTISRDNAKNTVFLQMNSLKPEDTAVYFCARDDWFGFIRVQEMDYWGQGTQVTVSS | low polyreactivity
10 | QVQLVESGGRLVQAGGSLRLSCAASGSTFVYYAMGWYRQAPGKERELVASINSGGSTYYADSVKGRFTISRDNAKNTVYLQMNSLKQEDTAVYDCAATSIPPSVHLQDPTYDYWGQGTQVTVSS | low polyreactivity
11 | QVQLVESGGGLVQAGGSLRLSCAATRSTSSKYAMGWYRQAPGKERELVAAITRSGGRTYYAVSVMGRFTISRDYAKNTVYLQMNSLKPEDTAVYYCAAAGVYWEFDYWGQGTQVTVSS | high polyreactivity
12 | QVQLQESGGGLMQAGGSQRLSCAASGSISYYSDMGWYRQSPGKEREFVAGIGYGTTTNYADSVKGRFTTSRDNAKNTVYLQMISMKPEDTAVYYCAAYQGNGYEFYYWGQGTQVTVRS | low polyreactivity
13 | QVQLVESGGGLFRAGGSLRLICAASGITFYGYAMGWYRQAPGKERELVAAITWSGGRTYYADSVKGRFTISRDNAKNTVYLQMNSMKPEDTAVYYCARRTWHSVGYWGQGTQVTVSS | high polyreactivity
14 | QVQIVESGGGLVQAGGSLRLSCAASGSIFFAYAMGSYRQAPGKERELVAAITGSGGSTYADSVKGRFTISRDNAKNTVYVQMNSLKPEDTAVYYCAKDHYYYPYKRLFVGHEYWGQGTQVTVSS | low polyreactivity
15 | QDQLVETGGGLVQAGGSLRLSCAASGSTFAYYTMGWYRPAPGKERELVAAISSGGITYYAYSVKGRFTISRDNAKNTVYLQMNSLKPEDTAVYYCAAYRTHGPPRAIRFDYWGQGTQVTVSS | high polyreactivity
16 | QVQLVESGGGLVQAGGSLRLSCAASGRTSYYAMGWYRQAPGKERELVAAINSGDSTTYADSVKGRFTISRDNAKNNVYLQMNSLKPEDTAVYYCATALYDWYSLEFDYWGQGTQVTVSS | low polyreactivity
17 | QVQLVESGGGLVQAGGSLRLSCAASGGTSRSYAMGWYRQAPGKERELVAAISWRGGRTYYADSVKGRFTISRDNAKNTVYLQMNSLKPEDTAVYYCAARQYSQEPYDYWGQGTQVTVSS | high polyreactivity
18 | QVQLVESGGGLVQAGGSLRLSCAASGFTSRRYAMGWYRQAPGKERELVAAISWSGGSTYYADSVKGRFTISRDNAKNTVYLQMNSLKPEDTAVYYCAAKRYSSKRGLDYWGQGTQVTVSS | high polyreactivity
19 | QVQLQESGGGQVQAGGSLRLSCAASGYISTHYFMGWYRQATGKDREFVAGISNGSITNYADSVKGRFTISRDNARNTVYLQMNSLKPEDTAVYYGAAYEWTYVRFGYWGQGTQVTVSG | high polyreactivity
20 | QVQLVESVGGLVQAGGSLRLSCAASGRTFGRKALVWYTQAPGKERELVAAISTSGSRTYYADSVKGRFTISRDNAKNTVYLQLNSLTPEDTAVYYCYAYGVSRGSYGTRGYWGQGTQVTVSS | high polyreactivity
21 | QVQLVESGGGLVQAGGSLRLSCAASGLIFRRYVLGWYRQAPGKEWELVAAISATGSRTYYADSVKGRFTISRDNAKNTVYLQRNSLKPEDNAVYYCAAYRGPRIYRYDYWGQVTQVTVSS | high polyreactivity
22 | QVQLVESGGGLVQAGGSLRLSCAASGRTLSHYAMGWYRQAPGKERELVAAITRSGGSTYYADSVKGRFTISRDYAKNTVYLQMNSLKPEDTAVYYCNKTLYTTYDYWGQGTQVTVSS | low polyreactivity

Row | Sequence | polyreactivity (PSR sort gate)
23 | QVQLVETVGGLVQAGGSLRLTCAASGFTIYYNAMGWYRQAPGKERELVASISSNGTSTYYADSVKGRFTISRDNAKNTVYLQMNSLKPEDTAVYYCNVDIFDPRTYDYWGQGTQVTVSS | low polyreactivity
24 | QVQLVESGGAFVQAGGSLRLSCAASGIIFERNAMGWYRQAPGNERELVAAISGGGSTNYADSVKGRFTISRDNEMNTVYLQRISLKPDDTAVYYCAGKAARRRGYYYWGQGTQVTVSS | high polyreactivity
25 | QVQLVESGGGLVQEGGSLRVSCAASGRIFANNAMAGYRQAPGKERELLAAISWSGGNTYYADSVKGRFTISRDNAKNTVYVQMNSLKPDDTAVYYCGAGSPRYSNNYVSYKGWDYSCGQGTQVTVSS | high polyreactivity
26 | QVQLVESGGGLVQAGGSLRLSCAASGRTFRYYAMGWYRQAPGKERELVAAISYSGGSTYYADSVKGRFTISRDNAKNTVYLQMNSLKPEDTAVYYCAAGPWHYKYSLRGWGYYWGQGTQVTVSS | high polyreactivity
27 | QVQLVETGGGLVQAGGSLRLSCAASGRTISVNAMVWYIQAPGKESELVAAISSGGGTNYADSVKGRFTISRDNAKNTVYFQMNSLKPEDTAVYYCAADSRPGKYYEDDYWGQGTQVTVSS | low polyreactivity
28 | QVQLVESGGGLVQAGGSLRLSCAASGSIFALYAMGWYRQAPGKERELVAAISYRGGRTYYADSVKGRFTISRDNAKNTVYLQMNSLKPEDTAVYFCATDFPGKFDYWGQGTQVTVSS | low polyreactivity
29 | QVQLVESGGGLVQAGGSLRLSCAASGLIFYINAMGWYRQAPGKERELVASITRTGSTNYADSVKGRFTISRDNAKNTVYLQMNSLKAEDTAVYYCAAYGPVYPHEYDYWGQGTQVTVSS | low polyreactivity
30 | QVHLVESGGGLVQAGGSLRLSCAASGSTFAVYAMGWYRQAPWKESELVAGISSRGGRTYYADSVKGRFTISRDNAKNTVYLQMNSLKPEDTAVYYCNVVYTYWRYYRWREYDYWGQGTQVTVSS | high polyreactivity
31 | QVQLVESGGGLVQAGGSLRVSCAASGSTCSQYVMGWYRQAPGKERELVAAISGGYRTYYADSVKGRFTISRDNAKNTVYLQMNSLKPEDTAVYYCAAEVLKTRWSYDYWGQGTQVTVSS | high polyreactivity
32 | QVQLVESGGGLVQAGGSLRLSCAASGRTFIEYAMAWYRQAPGKERELVAAISRNDGGSTYYADSVKGRFTISRDNAKNTVYLQMNSLKPEDTAVYYCAARRYISAHVRYGSWGQGTQVTLSS | high polyreactivity
33 | QVQLVESGGGLVQAGGSLRLSCAASGSIFYRYAMGWNRQAPGKERELVATITQSGVSTYYADSEKGRFTISRDNAKNTVYLQMNSLKPEDTAVYYCAASYYYTIGPYFRKFDWGQGTQVTVSS | low polyreactivity
34 | QVQLVESGGGLVQAGGSLRLSCAASGRIFRGYAMGWYRQAPGKERELVAAINSGGDTYYADSVKGRFTISRDNAKNTVYLQMNSLKPEDTAVYYCAAAWWDYGNGKYDYWGQGTQVTVSS | low polyreactivity
35 | QVQLVESGGGLVQAGGSLRLSCAASGRIFLWYAMGWYRQAPGKERELVASITRSGVTTYYADSVKGRFTISRDNAKNTVYLQMNSLKPEDTAVYYCAAELYGWSGDTNDYWGQGTHVTVSS | low polyreactivity
36 | QVQLVESGGGLVQAGGSLLLSCAASGSLFYRYAMGWYRQAPGKERELVAAISWGGGRTYYADSVKGRFTISRDNAKNTVYLQMNRLKPEDTAVYSCNREKYVRWIREDYDYWGQGTQVTVSS | high polyreactivity
37 | QVQLVESGGGLVQAGGSLRLSCAASGLTFEVYAMGWYRQAPGKERELVAAISSGGGSTYYADSVKGRFTISRDNAKNTVYLQMNSLKPEDTAVYYCNAVAKLYYWRYDYWGQGTQVTVSS | low polyreactivity
38 | QVQLVESVGGLVQAGGSLRLRCGASGSIFYIYAMGWYRHAPGNERELVAAITRRAATYADSVKGRFTISRDNAKKTGYLQMNSLKPEDTAVYYCNADVQRLGRYDYWGQGTQVTVSS | high polyreactivity
39 | QVQLVESGGGLVQAGGSLRKSCAASGIIFAYYALGCSRQAPGKERELGAAISSDGSTNYADSVKGRFTISRDNAKNSVYLQMNILKPVDTAVYYCAAKAYLYHWFEMYYWGQGTQVTVSS | high polyreactivity
40 | QVQLVESGGGLVQAGGSLRLSCAASGSIFADNAMGWDRQAPGKERELVAVISFSGSSTYYADSVKGRFTISRDNAKNTVYFQMNSVKPEDTAVYYWNAVRYRLERFDYWGQGTQVTVSS | high polyreactivity
41 | QVQLVESGGGFVQAGGTLRLSCAASGFTFGYNAMGWYRHAPGKERELVAAISFSDGITYYADSVKRRFTISRDNAKNNVYLQMNSLKPEDTAVYYCAADLYFEYEYWGQGTQVTVSS | high polyreactivity
42 | QVQLVESGGGLVQAGGSLRLSCAASGLIFTKAMGWYRQAPGKEREFVAAINSSGGSTYADSVKGRFTISRDNAKNTVYLQMNSLKPEDTAVYYCAARVNYLYEYWGQGTQVTVSS | low polyreactivity
43 | QVQLVESGGGLVQAGGSLRLSCAASGSIFSRNAMGWYRQAPGKERELVAAITGSGSSTYYADSVKGRFTISRDNAKNTVYLQMNSLKPEDSAVYYCNAARVYLSEWGQGTQVTVSS | high polyreactivity
